In experiment [1] the target is cynomolgus LRP6 (cynomolgus). The experiment is described as follows: FACS on HEK293T/17 cells transiently transfected with cynomolgus LRP6.
The target in a further experiment is human LRP6 (human) (UniProt O75581).

Where a chain is given by its changes, count along the chain named.

For orientation: EC50 means the concentration at which the effect is half-maximal.

human LRP6 (human), sequence (O75581 20-1613): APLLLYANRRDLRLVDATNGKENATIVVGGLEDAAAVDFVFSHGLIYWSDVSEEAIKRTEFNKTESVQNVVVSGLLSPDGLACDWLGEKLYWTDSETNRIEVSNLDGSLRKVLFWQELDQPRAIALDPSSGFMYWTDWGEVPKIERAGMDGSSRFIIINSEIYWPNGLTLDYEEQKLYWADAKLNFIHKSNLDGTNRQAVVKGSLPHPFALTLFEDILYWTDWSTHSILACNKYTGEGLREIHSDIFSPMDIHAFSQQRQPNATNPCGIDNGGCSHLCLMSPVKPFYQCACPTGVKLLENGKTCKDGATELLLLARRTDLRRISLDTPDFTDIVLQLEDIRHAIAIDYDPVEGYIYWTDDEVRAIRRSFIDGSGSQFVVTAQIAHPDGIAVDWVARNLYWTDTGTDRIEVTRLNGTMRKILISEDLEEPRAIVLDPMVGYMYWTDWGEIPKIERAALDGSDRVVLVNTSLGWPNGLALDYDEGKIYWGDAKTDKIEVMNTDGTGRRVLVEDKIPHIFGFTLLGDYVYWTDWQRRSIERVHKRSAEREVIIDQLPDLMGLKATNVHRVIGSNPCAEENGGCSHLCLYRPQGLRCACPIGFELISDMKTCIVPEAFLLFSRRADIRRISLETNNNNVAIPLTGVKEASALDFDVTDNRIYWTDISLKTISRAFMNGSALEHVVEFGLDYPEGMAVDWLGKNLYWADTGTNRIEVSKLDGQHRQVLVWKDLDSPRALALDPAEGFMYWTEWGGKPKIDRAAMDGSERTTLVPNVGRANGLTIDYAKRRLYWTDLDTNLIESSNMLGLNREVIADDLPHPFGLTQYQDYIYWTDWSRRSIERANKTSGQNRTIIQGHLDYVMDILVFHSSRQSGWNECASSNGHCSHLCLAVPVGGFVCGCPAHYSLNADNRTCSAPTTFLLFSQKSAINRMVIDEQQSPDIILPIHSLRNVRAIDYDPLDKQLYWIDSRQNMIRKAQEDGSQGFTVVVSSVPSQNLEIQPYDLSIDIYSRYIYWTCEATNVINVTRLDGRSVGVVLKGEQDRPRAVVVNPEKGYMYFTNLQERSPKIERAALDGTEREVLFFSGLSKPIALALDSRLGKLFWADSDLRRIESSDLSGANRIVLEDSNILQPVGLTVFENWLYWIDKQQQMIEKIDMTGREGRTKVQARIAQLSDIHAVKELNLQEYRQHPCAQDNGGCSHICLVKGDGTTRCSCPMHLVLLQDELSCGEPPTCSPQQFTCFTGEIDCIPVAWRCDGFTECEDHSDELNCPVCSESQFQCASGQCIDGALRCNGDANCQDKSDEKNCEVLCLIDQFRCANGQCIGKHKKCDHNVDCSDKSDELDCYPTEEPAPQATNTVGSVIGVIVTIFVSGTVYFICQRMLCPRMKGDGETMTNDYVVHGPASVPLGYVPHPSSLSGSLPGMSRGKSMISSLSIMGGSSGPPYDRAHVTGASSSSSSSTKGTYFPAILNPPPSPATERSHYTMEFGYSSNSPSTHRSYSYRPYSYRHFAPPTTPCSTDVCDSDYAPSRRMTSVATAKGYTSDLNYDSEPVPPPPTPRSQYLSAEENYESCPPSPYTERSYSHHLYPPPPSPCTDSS

B1: MOR08545 Fab (Fab, V domains shown)
VH: QVQLVESGGGLVQPGGSLRLSCAASGFTFSVNGMHWVRQAPGKGLEWVSVIDGMGHTYYADSVKGRFTISRDNSKNTLYLQMNSLRAEDTAVYYCARYDYIKYGAFDPWGQGTLVTVSS
VL: DIELTQPPSVSVAPGQTARISCSGDNIGSKYVHWYQQKPGQAPVLVIYGDSNRPSGIPERFSGSNSGNTATLTISGTQAEDEADYYCTRTSTPISGVFGGGTKLTVLG
B1 displayed an EC50 in experiment [1] of 0.3 nM.

B2: scFv08168-D7 (scFv, part only; not given: Linker and His tag, V domains shown, not shown: another chain or arm of the molecule; small tags and cut ends)
VH: QVQLVESGGGLVQPGGSLRLSCAASGFTFSDYVMNWVRQAPGKGLEWVSGISWSGVNTHYADSVKGRFTISRDNSKNTLYLQMNSLRAEDTAVYYCARLGATANNIRYKFMDVWGQGTLVTVSS
VL: DIELTQPPSVSVAPGQTARITCSGDSLRNKVYWYQQKPGQAPVLVIYKNNRPSGIPERFSGSNSGNTATLTISGTQAEDEADYYCQSYDGQKSLVFGGGTKLTVL
Regarding B2, in the experiment with human LRP6 (human), the IC50 by STF assay for Wnt1 inhibition is 4.81 nM.

B3: scFv08168-D6 (scFv, part only; not given: Linker and His tag, V domains shown, not shown: another chain or arm of the molecule; small tags and cut ends)
VH: B2 VH with V48I
VL: B2 VL with T21S
In the case of B3, the IC50 by STF assay for Wnt1 inhibition in the experiment with human LRP6 (human) came to 0.74 nM.

B4: scFv08168-D9 (scFv, part only; not given: Linker and His tag, V domains shown, not shown: another chain or arm of the molecule; small tags and cut ends)
VH: B2 VH
VL: B2 VL with T21S, G61V
In turn, B4 had an IC50 by STF assay for Wnt1 inhibition with human LRP6 (human) of 11.1 nM.

B5: MOR08168 Fab (Fab, V domains shown)
VH: B2 VH with M34I
VL: B2 VL with T21S
Turning to B5, in experiment [1], the EC50 amounted to 0.88 nM.

B6: MOR06706 Fab (Fab, V domains shown)
VH: QVQLVESGGGLVQPGGSLRLSCAASGFTFSDYAIHWVRQAPGKGLEWVSGISYSGSSTHYADSVKGRFTISRDNSKNTLYLQMNSLRAEDTAVYYCARGSHGNIMAKRYFDFWGQGTLVTVSS
VL: DIELTQPPSVSVAPGQTARISCSGDNIRKKYVYWYQQKPGQAPVLVIYEDSKRPSGIPERFSGSNSGNTATLTISGTQAEDEADYYCSTADSGINNGVFGGGTKLTVL
Regarding B6, the EC50 in experiment [1] is 0.46 nM.

B7: MOR06475 Fab (Fab, V domains shown)
VH: QVQLKESGPALVKPTQTLTLTCTFSGFSLSNRGGGVGWIRQPPGKALEWLAWIDWDDDKSYSTSLKTRLTISKDTSKNQVVLTMTNMDPVDTATYYCARMHLPLVFDSWGQGTLVTVSS
VL: DIVLTQSPATLSLSPGERATLSCRASQFIGSRYLAWYQQKPGQAPRLLIYGASNRATGVPARFSGSGSGTDFTLTISSLEPEDFATYYCQQYYDYPQTFGQGTKVEIK
B7 yielded an EC50 in experiment [1] of 0.22 nM.

The values above are taken from patent US20130058934A1.
